Assays:
[1] = test system: A549 human non-small cell lung cancer line; test: Growth in soft agar; format: cell-based; details: transfected A549, 3 weeks; mean over three experiments
Description: (§1) Figure 6 Talin R8 Mutations Disrupt the Interaction with DLC1 and Affect Its Biological Activity (A) Wild-type GST-talin fragments pull down more DLC1 than the 2E mutants. Extracts of HEK293T cells transfected with GFP-DLC1 and GST-talin constructs were subjected to pull-down assays with glutathione beads followed by immunoblotting with anti-GST and anti-DLC1 on the same membrane (top). The transfected GFP-DLC1 in each sample is shown by the anti-DLC1 blot (bottom) as a loading control. (B) Wild-type GST-talin fragments compete efficiently with endogenous talin to form a complex with DLC1. The supernatants collected after pull-down assay from (A) were reused for co-immunoprecipitation with an anti-talin antibody and blotted with anti-DLC1 (top). A small aliquot from each lane was blotted for endogenous talin as a loading control (bottom). (C) Co-expression of GST or GST-talin fragments (wild-type or 2E mutant) with GFP DLC1 in A549 cells. […] Transfected A549 cells were cultured in G418 for 3 weeks, and colonies counted and quantitated (top). […] Transfected A549 cells were grown for 3 weeks in soft agar, and colonies counted and quantitated (top). […] Lysates from migrated cells were quantitated (top), and representative microscopic images of the migrated cells are shown (bottom). […]

[2] = test system: A549 human non-small cell lung cancer line; test: Transwell cell migration assay; format: cell-based; details: transfected A549, transwell, 24 h; mean over three experiments
Description: as §1

B1: GST-R8: GST-tagged talin R8, amino acids 1,453–1,580 (protein)
chain: NSQAGQQGLVEPTQFARANQAIQMACQSLGEPGCTQAQVLSAATIVAKHTSALCNSCRLASARTANPTAKRQFVQSAKEVANSTANLVKTIKALDGDFTEENRAQCRAATAPLLEAVDNLSAFASNPE
modifications: left off: GST, end not stated, kept
How did the “growth in soft agar” value [1] turn out when B1 was run?
The value was “no detectable biological activity”.

And the cell migration [2]?
Its cell migration is “no detectable biological activity”.

Source: paper PMC4938799, “LD Motif Recognition by Talin: Structure of the Talin-DLC1 Complex” (Structure(London, England:1993), 2016)
